# How the values were obtained:
# [1] = 3H-PGE2 ELISA (PGE2 binding affinity)
# Method: Alternatively, prostaglandin binding screen for antibodies or DVD-Ig molecules can be determined using a ^3H-PGE2 ELISA. Plates were coated at 50 μl/well with 5 μg/ml of goat anti-human IgG (Fc) (Thermo Scientific #31170, Hudson, N.H.) or goat anti-mouse IgG (Fc) (Thermo Scientific #31125, Hudson, N.H.) in PBS and incubated overnight at 4° C. The following day plates were flicked and blotted dry. Plates were then blocked with 200 μL/well of Superblock (Thermo Scientific #37515, Hudson, N.H.), for 1 hour at room temperature. Plates were flicked and blotted dry. Monoclonal antibodies were diluted to 0.04 μg/ml in PBST (Abbott Bioresearch Center, Worcester, Mass.)/10% Superblock and 50 uL of each antibody or DVD-Ig was added to each well of the pre-blocked ELISA plate at 2 ng/well and incubated for 1 hour at room temperature. Wells were washed 3 times with PBS+0.1% Tween-20. A serial 3 fold titration of ^3H-PGE2 (Perkin Elmer #NET-428, Waltham, Mass.) was prepared in PBST+10% Superblock. Fifty microliters of the ^3H-PGE2 solution was then added to each well of the plate and incubated for 1 hour at room temperature. Wells were washed 6 times with PBST+10% Superblock and 50 μL of scintillation fluid (Perkin Elmer #6013621, Waltham, Mass.) added to each well. Plates were read using the TopCount reader (Perkin Elmer, Waltham, Mass.) with a 5 minutes count delay. EC50 number was determined using GraphPad Prism 5 (GraphPad Software, La Jolla, Calif.).
# [2] = tested on: PGE2 / human EP4 receptor in HEK293 Gα16 cells; assay: EP4 bioassay (Ca++ flux, neutralization of PGE2); type: cell-based; settings: for IC50: EP4 assay
# Method: The ability of anti-PGE2 antibodies and anti-PGE2 containing DVD-Ig molecules to inhibit the cellular response of PGE2 was determined in a Ca++ flux assay in HEK293 Gα16 cells stably transfected with human EP4 receptor. Cells were plated in black/clear poly-D-lysine plates, (Corning #3667, Corning, N.Y.) and incubated with Ca++-sensitive dye (Molecular Devices) for 90 minutes. Stock PGE2 (in 200 proof ethanol) was diluted with FLIPR buffer (containing 1×HBSS (Invitrogen, Carlsbad, Calif.), 20 mM HEPES (Invitrogen, Carlsbad, Calif.), 0.1% BSA (Sigma, St. Louis, Mo.) and 2.5 mM Probenecid (Sigma, St. Louis, Mo.)). Anti-PGE2 antibodies, DVD-Ig molecules or isotype matched control antibodies were also pre-diluted in FLIPR buffer. 25 μl of PGE2 or pre-incubated PGE2/antibody mixture or pre-incubated PGE2/DVD-Ig molecule mixture was added to the wells pre-plated with cells. A dose response of PGE2 was done by a serial titration of PGE2 and was determined using FLIPR1 or Tetra (Molecular Devices). EC50 was determined using GraphPad Prism 5 (GraftPad Software, La Jolla, Calif.). […] Ca++ flux was monitored using FLIPR1 and data was analyzed using GraphPad Prism 5.
# The ability of anti-PGE2 antibodies and anti-PGE2 containing DVD-Ig molecules to inhibit the cellular response of PGE2 was determined in a Ca++ flux assay using stably transfected human EP4 in HEK293 Gα16 cells. Cells were plated in black/clear Poly-D-Lysine plates, (Corning #3667) and incubated with Ca++-sensitive dye (Molecular Devices) for 90 minutes. Stock PGE2 (in 200 proof ethanol) was diluted with FLIPR buffer (containing 1×HBSS, 20 mM HEPES, 0.1% BSA and 2.5 mM Probenecid). Anti-PGE2 antibodies, DVD-Ig molecules or isotype matched control antibodies were also pre-diluted in FLIPR buffer. 25 μl of PGE2 or pre-incubated PGE2/antibody mixture or pre-incubated PGE2/DVD-Ig molecule mixture was added to the wells pre-plated with cells. A dose response of PGE2 was done by a serial titration of PGE2 and was determined using FLIPR1 or Tetra (Molecular Devices). EC50 was determined using GraphPad Prism 5. […] Ca++ flux was monitored using FLIPR1 and data was analyzed using GraphPad Prism 5.
# [3] = Size exclusion chromatography, percent monomer of parent antibodies and DVD-Ig constructs; type: physicochemical
# Method: Antibodies were diluted to 2.5 mg/mL with water and […] is analyzed on a Shimadzu HPLC system using a TSK gel G3000 SWXL column (Tosoh Bioscience, cat#k5539-05k). […] The HPLC system operating conditions are the following: […]
# [4] = PGE2-biotinamide ELISA (PGE2 binding); settings: PGE2 VD in C-terminal position, read-out: Direct Bind ELISA C-terminal VD EC50
# Method: (§1) Enzyme linked immunosorbent assays to screen for anti-PGE2 antibodies or anti-PGE2 containing DVD-Ig molecules that bind prostaglandin E2 were performed as follows. ELISA plates (Costar 3369, Corning, N.Y.) were coated with 50 μl of anti-host Fc IgG (Sigma, St. Louis, Mo.) at 2 μg/ml in PBS (Invitrogen Carlsbad, Calif.). Following an overnight incubation at 4° C., the plate was blocked with 200 μl Superblock (Pierce #37535, Rockford, Ill.). The IgG or DVD-Ig containing samples were diluted to 1 μg/ml in Assay Buffer (10% Superblock in PBS containing 0.05% Surfactamps (Pierce #37535, Rockford, Ill.) and incubated on the plate at 50 μl/well for 1 hour at room temperature. Following the incubation, plates were washed four times with TTBS (Tween-Tris Buffered Solution). For PGE2 binding, PGE2-biotinamide (Cayman Chemicals, Ann Arbor, Mich.) was diluted to 30 nM and serially diluted in Assay Buffer. The titration curve was added to each IgG or DVD-Ig sample at a volume of 50 μl/well and incubated for 1 hour at room temperature. The plates were washed as previously described and 50 μl/well of 1:5000 dilution of streptavidin polyhrp40 (Fitzgerald Industries, Concord, Mass.) in Assay Buffer was added and incubated for 45 minutes at room temperature. A final wash step was performed and the plates were developed using a single step TMB system (Sigma #T8665, St. Louis, Mo.) and 2N H2SO4. Plates were read at 450 nm on a Molecular Devices Spectramax plate reader (Sunnyvale, Calif.). EC50 was determined using GraphPad Prism 5 (GraphPad Software, La Jolla, Calif.) (FIG. 2).
# as §1, with “ELISA” for “Enzyme linked immunosorbent assays to screen for anti-PGE2 antibodies or anti-PGE2 containing DVD-Ig molecules that bind prostaglandin E2 were performed as follows. ELISA”, “(Invitrogen,” for “(Invitrogen”, “IgG” for “IgG or DVD-Ig”, “Solution).” for “Solution). For PGE2 binding,”, “Calif.).” for “Calif.) (FIG. 2).”
# target antigen = assay: BIACORE affinity determination of parent antibodies and DVD-Ig constructs; type: binding; settings: antigen IL-15, 25° C.
# Method: The BIACORE assay (Biacore, Inc, Piscataway, N.J.) determines the affinity of antibodies or DVD-Ig with kinetic measurements of on-rate and off-rate constants. […] All chemicals are obtained from Biacore® AB (Uppsala, Sweden) or otherwise from a different source as described in the text. For example, approximately 5000 RU of goat anti-mouse IgG, (Fcγ), fragment specific polyclonal antibody (Pierce Biotechnology Inc, Rockford, Ill.) diluted in 10 mM sodium acetate (pH 4.5) is directly immobilized across a CM5 research grade biosensor chip using a standard amine coupling kit according to manufacturer's instructions and procedures at 25 μg/ml. Unreacted moieties on the biosensor surface are blocked with ethanolamine. Modified carboxymethyl dextran surface in flowcell 2 and 4 is used as a reaction surface. Unmodified carboxymethyl dextran without goat anti-mouse IgG in flow cell 1 and 3 is used as the reference surface. For kinetic analysis, rate equations derived from the 1:1 Langmuir binding model are fitted simultaneously to association and dissociation phases of all eight injections (using global fit analysis) with the use of Biaevaluation 4.0.1 software. Purified antibodies or DVD-Ig are diluted in HEPES-buffered saline for capture across goat anti-mouse IgG specific reaction surfaces. Antibodies or DVD-Ig to be captured as a ligand (25 μg/ml) are injected over reaction matrices at a flow rate of 5 μl/min. The association and dissociation rate constants, kon (M^−1 s^−1) and koff (s^−1) are determined under a continuous flow rate of 25 μl/min. Rate constants are derived by making kinetic binding measurements at different antigen concentrations ranging from 10-200 nM. The equilibrium dissociation constant (M) of the reaction between antibodies or DVD-Igs and the target antigen is then calculated from the kinetic rate constants by the following formula: KD=koff/kon. Binding is recorded as a function of time and kinetic rate constants are calculated. In this assay, on-rates as fast as 10^6 M^−1 s^−1 and off-rates as slow as 10^−6 s^−1 can be measured.
Molecule,Kd [1],IC50 [2],% Monomer (purity) [3],EC50 [4],"EC50 ([2]; PGE2 VD in C-terminal position, EP4 bioassay, Ca++ flux, read-out: C-terminal VD PGE2 Neutralization EC50)",koff (target antigen)
"2B5-hSL-8C11: anti-murine TNFα/anti-PGE2 DVD-Ig, human short linker, SEQ ID 106/107 (antibody) heavy: QVQLQQSGPELVRPGSSVKISCKASGYTFTKYWLGWVKQRPGHGLEWIGDIYPGYDYTHYNEKFKDKATLTVDTSSSTAYMQLSSLTSEDSAIYYCARSDGSSTYWGQGTLVTVSAASTKGPEFQLQQSGPELVKPGASVRISCKASGYSFTDYNMNWVKQSNGKSLEWVGVINPNYGSSTYNQKFKGKATLTVDQSSSTAYMQLNSLTSEDSAVYYCARKWGQLGRGFFDVWGTGTTVTVSS light: DVLMTQTPLSLPVSLGDQASISCTSSQNIVHSNGNTYLEWYLQRPGQSPKLLIYKVSNRFSGVPDRFSGSGSGTVFTLKISRVEAEDLGVYYCFQVSHVPYTFGGGTKLEIKRTVAAPQIVLSQSPAILSASPGEKVTMTCRASSSVSYMHWFQQKPGSSPKPWIYATSNLASGVPARFSGSGSGTSYSLTISRVEAEDAATYYCQQWSSSPLTFGAGTKLELKR",0.238 nM,0.02 nM,–,–,–,–
"2B5-hLL-8C11: anti-murine TNFα/anti-PGE2 DVD-Ig, human long linker, SEQ ID 108/109 (antibody) heavy: QVQLQQSGPELVRPGSSVKISCKASGYTFTKYWLGWVKQRPGHGLEWIGDIYPGYDYTHYNEKFKDKATLTVDTSSSTAYMQLSSLTSEDSAIYYCARSDGSSTYWGQGTLVTVSAASTKGPSVFPLAPEFQLQQSGPELVKPGASVRISCKASGYSFTDYNMNWVKQSNGKSLEWVGVINPNYGSSTYNQKFKGKATLTVDQSSSTAYMQLNSLTSEDSAVYYCARKWGQLGRGFFDVWGTGTTVTVSS light: DVLMTQTPLSLPVSLGDQASISCTSSQNIVHSNGNTYLEWYLQRPGQSPKLLIYKVSNRFSGVPDRFSGSGSGTVFTLKISRVEAEDLGVYYCFQVSHVPYTFGGGTKLEIKRTVAAPSVFIFPPQIVLSQSPAILSASPGEKVTMTCRASSSVSYMHWFQQKPGSSPKPWIYATSNLASGVPARFSGSGSGTSYSLTISRVEAEDAATYYCQQWSSSPLTFGAGTKLELKR",0.383 nM,0.064 nM,–,–,–,–
DVD154: DVD-Ig construct listed in Table 4 (antibody) VH: EVQLVQSGAEVKKPGESLKISCKVSGYFFTTYWIGWVRQMPGKGLEYMGIIYPGDSDTRYSPSFQGQVTISADKSISTAYLQWSSLKASDTAMYYCARGGNWNCFDYWGQGTLVTVSSASTKGPEVQLVQSGAEVKKPGASVKVSCKASGYTFTKYWLGWVRQAPGQGLEWMGDIYPGYDYTHYNEKFKDRVTLTTDTSTSTAYMELRSLRSDDTAVYYCARSDGSSTYWGQGTLVTVSS VL: EIVLTQSPGTLSLSPGERATLSCRASQSVSSSYLAWYQQKPGQAPRLLIYGASRRATGIPDRFSGSGSGTDFTLTISRLEPEDFAVYYCQRYGSSHTFGQGTKLEISRTVAAPDVLMTQTPLSLPVTPGEPASISCTSSQNIVHSNGNTYLEWYLQKPGQSPQLLIYKVSNRFSGVPDRFSGSGSGTDFTLKISRVEAEDVGVYYCFQVSHVPYTFGGGTKVEIKR,–,–,88.7%,1.54 nM,0.029 nM,0.00198 s⁻¹
